According to US20140087995A1 (published 2014):
Numbered stars: 1 amine (or outer) side, 2 acyl side, 3 side chain; on linkers, the order of the positions; unused ones are H or OH. Bridge positions count the residues as written; N and C are the ends. Side chains are listed from the residue outwards. Ends that are not written are not given here. * marks the point of attachment. C20 diacid = O=C(O)CCCCCCCCCCCCCCCCCCC(=O)*; γGlu = O=C(O)[C@H](CCC(=O)[*:2])N[*:1]; AEEA = NCCOCCOCC(=O)O

T1: rat calcitonin receptor (rat, UniProt P32214 25-516)
T1 construct: whole, on cells; Membranes prepared from transiently transfected BHK tk'ts 13 cells (Assay VIII); also called rCTR; rCT
T1 sequence (looked up): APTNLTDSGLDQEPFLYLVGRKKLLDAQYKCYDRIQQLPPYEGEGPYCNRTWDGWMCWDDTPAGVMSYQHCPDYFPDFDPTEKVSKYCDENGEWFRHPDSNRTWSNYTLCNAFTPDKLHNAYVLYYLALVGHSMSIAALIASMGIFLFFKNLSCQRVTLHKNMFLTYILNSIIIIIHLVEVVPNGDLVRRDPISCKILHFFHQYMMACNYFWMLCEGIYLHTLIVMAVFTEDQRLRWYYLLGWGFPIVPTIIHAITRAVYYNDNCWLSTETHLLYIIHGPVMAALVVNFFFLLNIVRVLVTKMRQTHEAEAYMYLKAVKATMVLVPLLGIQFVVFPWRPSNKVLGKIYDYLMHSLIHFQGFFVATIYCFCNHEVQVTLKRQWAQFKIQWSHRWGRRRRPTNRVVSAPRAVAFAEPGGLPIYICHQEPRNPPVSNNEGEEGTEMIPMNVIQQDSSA

T2: rat amylin receptor (rat calcitonin receptor + rat RAMP 3) (rat, UniProt P32214 25-516; Q9JJ73 23-147)
T2 construct: whole, on cells; Membranes prepared from transiently transfected BHK tk'ts 13 cells (Assay VI); also called rAmylin-R; rAmylin
T2 sequence (looked up) 1: T1 sequence (looked up)
T2 sequence (looked up) 2: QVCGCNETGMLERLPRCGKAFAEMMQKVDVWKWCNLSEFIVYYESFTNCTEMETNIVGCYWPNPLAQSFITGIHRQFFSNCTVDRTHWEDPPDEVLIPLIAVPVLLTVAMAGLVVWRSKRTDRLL

T3: human calcitonin receptor (human, UniProt P30988 25-474)
T3 construct: whole, on cells; Membranes prepared from a stably transfected BHK cell line (Assay VII); also called hCTR; hCT
T3 sequence (looked up): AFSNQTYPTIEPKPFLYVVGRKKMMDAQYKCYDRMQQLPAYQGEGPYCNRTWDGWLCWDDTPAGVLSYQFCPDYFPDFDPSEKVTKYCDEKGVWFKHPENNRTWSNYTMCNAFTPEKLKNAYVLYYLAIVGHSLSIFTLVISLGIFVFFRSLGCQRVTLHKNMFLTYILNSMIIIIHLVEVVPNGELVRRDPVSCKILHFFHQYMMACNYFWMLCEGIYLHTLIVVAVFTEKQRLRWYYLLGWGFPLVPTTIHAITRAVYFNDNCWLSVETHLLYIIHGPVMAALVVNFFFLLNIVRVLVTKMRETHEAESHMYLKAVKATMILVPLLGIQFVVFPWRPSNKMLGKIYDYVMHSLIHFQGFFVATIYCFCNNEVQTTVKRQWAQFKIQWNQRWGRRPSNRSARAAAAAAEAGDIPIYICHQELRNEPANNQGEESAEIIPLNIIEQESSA

B1: N^ε1-[2-[2-[2-[[(4S)-4-carboxy-4-(19-carboxynonadecanoylamino)butanoyl]amino]ethoxy]ethoxy]acetyl]-[His14,Arg17,Pro21,Pro27]-h-amylin (peptide)
peptide: K([AEEA-γGlu-C20 diacid])CNTATCATQRLAHFLRHSSPNFGAIPSSTNVGSNTY-NH2
modifications: disulfide 2-7; N-terminus assumed
SMILES: CC[C@H](C)[C@H](NC(=O)[C@H](C)NC(=O)CNC(=O)[C@H](Cc1ccccc1)NC(=O)[C@H](CC(N)=O)NC(=O)[C@@H]1CCCN1C(=O)[C@H](CO)NC(=O)[C@H](CO)NC(=O)[C@H](Cc1c[nH]cn1)NC(=O)[C@H](CCCNC(=N)N)NC(=O)[C@H](CC(C)C)NC(=O)[C@H](Cc1ccccc1)NC(=O)[C@H](Cc1c[nH]cn1)NC(=O)[C@H](C)NC(=O)[C@H](CC(C)C)NC(=O)[C@H](CCCNC(=N)N)NC(=O)[C@H](CCC(N)=O)NC(=O)[C@@H](NC(=O)[C@H](C)NC(=O)[C@@H]1CSSC[C@H](NC(=O)[C@@H](N)CCCCNC(=O)COCCOCCNC(=O)CC[C@H](NC(=O)CCCCCCCCCCCCCCCCCCC(=O)O)C(=O)O)C(=O)N[C@@H](CC(N)=O)C(=O)N[C@@H]([C@@H](C)O)C(=O)N[C@@H](C)C(=O)N[C@@H]([C@@H](C)O)C(=O)N1)[C@@H](C)O)C(=O)N1CCC[C@H]1C(=O)N[C@@H](CO)C(=O)N[C@@H](CO)C(=O)N[C@H](C(=O)N[C@@H](CC(N)=O)C(=O)N[C@H](C(=O)NCC(=O)N[C@@H](CO)C(=O)N[C@@H](CC(N)=O)C(=O)N[C@H](C(=O)N[C@@H](Cc1ccc(O)cc1)C(N)=O)[C@@H](C)O)C(C)C)[C@@H](C)O
notes: Analogue of human amylin; also called compound 69
B2: N^ε1-[2-[2-[2-(19-carboxynonadecanoylamino)ethoxy]ethoxy]acetyl]-[Arg17,Pro21,Pro27,His34]-h-amylin (peptide)
peptide: K([AEEA-C20 diacid])CNTATCATQRLANFLRHSSPNFGAIPSSTNVGHNTY-NH2
modifications: disulfide 2-7; N-terminus assumed
SMILES: CC[C@H](C)[C@H](NC(=O)[C@H](C)NC(=O)CNC(=O)[C@H](Cc1ccccc1)NC(=O)[C@H](CC(N)=O)NC(=O)[C@@H]1CCCN1C(=O)[C@H](CO)NC(=O)[C@H](CO)NC(=O)[C@H](Cc1c[nH]cn1)NC(=O)[C@H](CCCNC(=N)N)NC(=O)[C@H](CC(C)C)NC(=O)[C@H](Cc1ccccc1)NC(=O)[C@H](CC(N)=O)NC(=O)[C@H](C)NC(=O)[C@H](CC(C)C)NC(=O)[C@H](CCCNC(=N)N)NC(=O)[C@H](CCC(N)=O)NC(=O)[C@@H](NC(=O)[C@H](C)NC(=O)[C@@H]1CSSC[C@H](NC(=O)[C@@H](N)CCCCNC(=O)COCCOCCNC(=O)CCCCCCCCCCCCCCCCCCC(=O)O)C(=O)N[C@@H](CC(N)=O)C(=O)N[C@@H]([C@@H](C)O)C(=O)N[C@@H](C)C(=O)N[C@@H]([C@@H](C)O)C(=O)N1)[C@@H](C)O)C(=O)N1CCC[C@H]1C(=O)N[C@@H](CO)C(=O)N[C@@H](CO)C(=O)N[C@H](C(=O)N[C@@H](CC(N)=O)C(=O)N[C@H](C(=O)NCC(=O)N[C@@H](Cc1c[nH]cn1)C(=O)N[C@@H](CC(N)=O)C(=O)N[C@H](C(=O)N[C@@H](Cc1ccc(O)cc1)C(N)=O)[C@@H](C)O)C(C)C)[C@@H](C)O
notes: Analogue of human amylin; also called compound 91
B3: N^ε1-[2-[2-[2-[[(4S)-4-carboxy-4-(19-carboxynonadecanoylamino)butanoyl]amino]ethoxy]ethoxy]acetyl]-[Ala14,Arg17,Pro21,Pro27,Pro31]-h-amylin (peptide)
peptide: K([AEEA-γGlu-C20 diacid])CNTATCATQRLAAFLRHSSPNFGAIPSSTPVGSNTY-NH2
modifications: disulfide 2-7; N-terminus assumed
SMILES: CC[C@H](C)[C@H](NC(=O)[C@H](C)NC(=O)CNC(=O)[C@H](Cc1ccccc1)NC(=O)[C@H](CC(N)=O)NC(=O)[C@@H]1CCCN1C(=O)[C@H](CO)NC(=O)[C@H](CO)NC(=O)[C@H](Cc1c[nH]cn1)NC(=O)[C@H](CCCNC(=N)N)NC(=O)[C@H](CC(C)C)NC(=O)[C@H](Cc1ccccc1)NC(=O)[C@H](C)NC(=O)[C@H](C)NC(=O)[C@H](CC(C)C)NC(=O)[C@H](CCCNC(=N)N)NC(=O)[C@H](CCC(N)=O)NC(=O)[C@@H](NC(=O)[C@H](C)NC(=O)[C@@H]1CSSC[C@H](NC(=O)[C@@H](N)CCCCNC(=O)COCCOCCNC(=O)CC[C@H](NC(=O)CCCCCCCCCCCCCCCCCCC(=O)O)C(=O)O)C(=O)N[C@@H](CC(N)=O)C(=O)N[C@@H]([C@@H](C)O)C(=O)N[C@@H](C)C(=O)N[C@@H]([C@@H](C)O)C(=O)N1)[C@@H](C)O)C(=O)N1CCC[C@H]1C(=O)N[C@@H](CO)C(=O)N[C@@H](CO)C(=O)N[C@H](C(=O)N1CCC[C@H]1C(=O)N[C@H](C(=O)NCC(=O)N[C@@H](CO)C(=O)N[C@@H](CC(N)=O)C(=O)N[C@H](C(=O)N[C@@H](Cc1ccc(O)cc1)C(N)=O)[C@@H](C)O)C(C)C)[C@@H](C)O
notes: Analogue of human amylin; also called compound 72

target: T1, rat calcitonin receptor; assay: ratio of binding IC50s: rat calcitonin receptor / rat amylin receptor (reference)

Ratio rCT/rAmylin binding	Binder
104	B1
76.3	B2
259	B3

target: T2, rat amylin receptor (rat calcitonin …); assay: SPA competition vs 125I-rat amylin, membranes of BHK cells with rat calcitonin receptor + rat RAMP3 (Assay VI)
Protocol: The binding assay was performed using scintillation proximity assay (SPA) beads (RPNQ0001) from PerkinElmer and cell membranes from the Amylin 3(a)/CRE-luc cells (as described in Assay (II)) were used. Membranes were prepared in the following way; the cells were rinsed with PBS and incubated with Versene for approximately 5 min before harvesting. The cells were flushed with PBS and the cell-suspension was centrifuged for 5 min at 1000 rpm. Cells were homogenized (ultrathurrax) in a buffer containing 20 mM Na-HEPES and 10 mM EDTA (pH 7.4) and centrifuged at 20.000 rpm for 15 min. The resulting pellet was resuspended, homogenized and centrifuged (20.000 rpm, 15 min) in a buffer containing 20 mM Na-HEPES and 0.1 mM EDTA (pH 7.4, buffer 2). The resulting pellet was resuspended in buffer 2 and protein concentration was measured (BCA protein Assay, Pierce). The homogenate was kept cold during the whole procedure. The membranes were kept at −80° C. until use. The assay was performed in a 384 well Optiplate (PerkinElmer) in a total volume of 40 ul. Membranes were mixed with SPA beads. Final concentration of membranes 35 ng/μL final and SPA beads was 0.05 mg/well. Test-compounds were dissolved in DMSO and further diluted in assay buffer (50 mM Hepes, pH 7.4, 1 mM CaCl2, 5 mM MgCl₂, 0.1% OA and 0.02% Tween20). […] The final mixture was incubated with shaking at 400 rpm for 120 min at 25° C. prior to centrifugation (1500 rpm, 10 min). Samples were analyzed on TopCounter™ (Packard). The IC₅₀ was calculated using (one site binding competition analysis) GraphPad Prism5 as a measure of receptor affinity.
Cells were grown in DMEM with 10% FBS and 1% Pen/Strep. Approximately 48 hours after transfection, the cells were harvested and membranes were prepared.

IC50	Binder
0.00045 µM	B1
0.000386 µM	B2
0.000851 µM	B3

target: T1, rat calcitonin receptor; assay: SPA competition vs 125I-calcitonin, membranes of BHK cells with rat calcitonin receptor (Assay VIII)

IC50	Binder
0.0468 µM	B1
0.0295 µM	B2
0.221 µM	B3

target: T3, human calcitonin receptor; assay: ratio of binding IC50s: human calcitonin receptor / human amylin receptor (reference)
Protocol: The resulting pellet was resuspended, homogenized and centrifuged (20.000 rpm, 15 min) in a buffer containing 20 mM Na-HEPES and 0.1 mM EDTA (pH 7.4, buffer 2). The resulting pellet was resuspended in buffer 2 and protein concentration was measured (BCA protein Assay, Pierce). The homogenate was kept cold during the whole procedure. The membranes were kept at −80° C. until use. The assay was performed in a 384 well Optiplate (PerkinElmer) in a total volume of 40 ul. Membranes were mixed with SPA beads. Final concentration of membranes 35 ng/μL final and SPA beads was 0.05 mg/well. Test-compounds were dissolved in DMSO and further diluted in assay buffer (50 mM Hepes, pH 7.4, 1 mM CaCl2, 5 mM MgCl₂, 0.1% OA and 0.02% Tween20). […] The final mixture was incubated with shaking at 400 rpm for 120 min at 25° C. prior to centrifugation (1500 rpm, 10 min). Samples were analyzed on TopCounter™ (Packard). The IC₅₀ was calculated using (one site binding competition analysis) GraphPad Prism5 as a measure of receptor affinity.
Membranes were prepared in the following way; the cells were rinsed with PBS and incubated with Versene for approximately 5 min before harvesting. The cells were flushed with PBS and the cell-suspension was centrifuged for 5 min at 1000 rpm. Cells were homogenized (Ultrathurrax) in a buffer containing 20 mM Na-HEPES and 10 mM EDTA (pH 7.4) and centrifuged at 20.000 rpm for 15 min. The resulting pellet was resuspended, homogenized and centrifuged (20.000 rpm, 15 min) in a buffer containing 20 mM Na-HEPES and 0.1 mM EDTA (pH 7.4, buffer 2). The resulting pellet was resuspended in buffer 2 and protein concentration was measured (BCA protein Assay, Pierce). The homogenate was kept cold during the whole procedure. The membranes were kept at −80° C. until use. Assay was performed in a 384 well Optiplate (PerkinElmer) in a total volume of 40 ul. Membranes were mixed with SPA beads.

Ratio hCT/hAmylin binding	Binder
65.3	B1
101	B2
247	B3
